Article PMC4898653 (2017)

What was measured:
kallikrein-6 = kallikrein-6 (Homo sapiens, UniProt Q92876); test: enzyme inhibition
cationic trypsin = cationic trypsin (Homo sapiens, UniProt P07477); test: enzyme inhibition
factor XIa = factor XIa (Homo sapiens, UniProt P03951); test: enzyme inhibition
anionic trypsin = biological target: T1, anionic trypsin (Homo sapiens, UniProt P07478); test: enzyme inhibition
T1 chain: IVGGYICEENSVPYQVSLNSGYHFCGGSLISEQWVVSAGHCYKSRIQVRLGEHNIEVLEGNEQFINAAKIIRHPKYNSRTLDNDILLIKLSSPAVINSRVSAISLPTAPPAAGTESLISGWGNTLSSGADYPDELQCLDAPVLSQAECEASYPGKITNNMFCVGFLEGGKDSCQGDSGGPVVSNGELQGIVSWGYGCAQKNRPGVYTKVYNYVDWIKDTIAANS

mesotrypsin = biological target: T2, mesotrypsin (Homo sapiens, UniProt P35030); test: competitive inhibition of Z-GPR-pNA cleavage
T2 chain: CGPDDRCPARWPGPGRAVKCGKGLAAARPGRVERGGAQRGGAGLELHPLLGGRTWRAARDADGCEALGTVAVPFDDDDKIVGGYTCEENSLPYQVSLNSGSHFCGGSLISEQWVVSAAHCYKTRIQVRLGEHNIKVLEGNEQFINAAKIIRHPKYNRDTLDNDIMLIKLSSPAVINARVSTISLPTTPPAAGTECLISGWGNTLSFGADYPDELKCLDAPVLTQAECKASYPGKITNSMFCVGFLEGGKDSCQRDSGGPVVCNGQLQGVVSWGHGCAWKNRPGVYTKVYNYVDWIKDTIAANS

Sequence of factor XIa (P03951 388-625): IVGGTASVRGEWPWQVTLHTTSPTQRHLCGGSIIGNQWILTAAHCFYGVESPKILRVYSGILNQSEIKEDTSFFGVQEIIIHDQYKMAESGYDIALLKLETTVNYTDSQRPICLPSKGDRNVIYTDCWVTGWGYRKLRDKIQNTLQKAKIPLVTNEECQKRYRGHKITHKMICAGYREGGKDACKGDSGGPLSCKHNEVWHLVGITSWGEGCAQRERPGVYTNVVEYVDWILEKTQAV

Ki (kallikrein-6): 2.23 nM
Ki (cationic trypsin): 0.00627 nM
Ki (factor XIa): 0.41 nM
Ki (anionic trypsin): 0.00174 nM
Ki (mesotrypsin): 131 nM
B1: APPI Kunitz domain (protein)
chain: VREVCSEQAETGPCRAMISRWYFDVTEGKCAPFFYGGCGGNRNNFDTEEYCMAVCGSA
